Reference: US20240417437A1 (TRUTINO BIOSCIENCES, published 2024)

Key:
[1] = molecular target: fibronectin (Sigma), coated on 96-well plates; test: plate ELISA on coated fibronectin at pH 6, OD 450-650nm. The EC50 is printed in the plot area beside the top curve (Construct EE - pH 6), the only strongly rising curve
Procedure: A similar plate-based assay was developed to interrogate binding of IL-2 fusion variants to fibronectin. 96-well plates were coated with fibronectin (4-10 μg/mL, Sigma) or control BSA for 18-22 hours at room temperature on shaker (350 rpm). After washing, wells were blocked with 2% milk powder in PBS-0.05% Tween 20 or protein-free blocking buffer (Pierce) for 90 min, then fusion proteins were titrated in blocking buffer-0.1% Tween 20, pH 7.5 and/or pH 6, and added for 1 hour at room temperature with shaking. After washing, an anti-mouse IL-2 biotin-labelled detection antibody (JES6-5H4, ThermoFisher) or anti-human IgG HRP conjugate antibody (SouthernBiotech) was added, and binding was detected using Ultra Streptavidin HRP (ThermoFisher). The plate was developed by adding the chromogenic tetramethylbenzidine substrate (Ultra TMB, ThermoFisher). The reaction was stopped by addition of 0.5 M H₂SO₄, and the absorbance was read at 450-650 nm.

[2] = molecular target: T1, collagen cross-linked to agarose (Sigma); test: pulldown with collagen-agarose, immunoblot quantified with iBright imaging system; reference Construct B
T1 construct: also called collagen-agarose; collagen-agarose beads
Procedure: To test binding to collagen, a pulldown assay using agarose cross-linked to collagen (Sigma) was performed. IL-2 fusion proteins were incubated with collagen-agarose or control agarose beads for 18-22 hours at 4° C. with gentle rotation in 1% BSA/PBS-0.05% Tween 20. After washing, proteins bound to the beads were eluted by resuspending beads in SDS sample buffer (Life Technologies). […] Donkey anti-goat HRP-conjugated antibody was used for detection (Jackson Immuno Research, West Grove, PA), and the blot was developed using the SuperSignal West Femto Maximum sensitivity detection reagent (ThermoFisher) following the manufacturer's recommendations. Construct GG and Construct II were specifically bound by collagen-agarose beads, while no IL-2 fusion protein bound the control agarose beads.

fibronectin (Sigma), coated on 96-well plates, sequence (P02751 32-2477): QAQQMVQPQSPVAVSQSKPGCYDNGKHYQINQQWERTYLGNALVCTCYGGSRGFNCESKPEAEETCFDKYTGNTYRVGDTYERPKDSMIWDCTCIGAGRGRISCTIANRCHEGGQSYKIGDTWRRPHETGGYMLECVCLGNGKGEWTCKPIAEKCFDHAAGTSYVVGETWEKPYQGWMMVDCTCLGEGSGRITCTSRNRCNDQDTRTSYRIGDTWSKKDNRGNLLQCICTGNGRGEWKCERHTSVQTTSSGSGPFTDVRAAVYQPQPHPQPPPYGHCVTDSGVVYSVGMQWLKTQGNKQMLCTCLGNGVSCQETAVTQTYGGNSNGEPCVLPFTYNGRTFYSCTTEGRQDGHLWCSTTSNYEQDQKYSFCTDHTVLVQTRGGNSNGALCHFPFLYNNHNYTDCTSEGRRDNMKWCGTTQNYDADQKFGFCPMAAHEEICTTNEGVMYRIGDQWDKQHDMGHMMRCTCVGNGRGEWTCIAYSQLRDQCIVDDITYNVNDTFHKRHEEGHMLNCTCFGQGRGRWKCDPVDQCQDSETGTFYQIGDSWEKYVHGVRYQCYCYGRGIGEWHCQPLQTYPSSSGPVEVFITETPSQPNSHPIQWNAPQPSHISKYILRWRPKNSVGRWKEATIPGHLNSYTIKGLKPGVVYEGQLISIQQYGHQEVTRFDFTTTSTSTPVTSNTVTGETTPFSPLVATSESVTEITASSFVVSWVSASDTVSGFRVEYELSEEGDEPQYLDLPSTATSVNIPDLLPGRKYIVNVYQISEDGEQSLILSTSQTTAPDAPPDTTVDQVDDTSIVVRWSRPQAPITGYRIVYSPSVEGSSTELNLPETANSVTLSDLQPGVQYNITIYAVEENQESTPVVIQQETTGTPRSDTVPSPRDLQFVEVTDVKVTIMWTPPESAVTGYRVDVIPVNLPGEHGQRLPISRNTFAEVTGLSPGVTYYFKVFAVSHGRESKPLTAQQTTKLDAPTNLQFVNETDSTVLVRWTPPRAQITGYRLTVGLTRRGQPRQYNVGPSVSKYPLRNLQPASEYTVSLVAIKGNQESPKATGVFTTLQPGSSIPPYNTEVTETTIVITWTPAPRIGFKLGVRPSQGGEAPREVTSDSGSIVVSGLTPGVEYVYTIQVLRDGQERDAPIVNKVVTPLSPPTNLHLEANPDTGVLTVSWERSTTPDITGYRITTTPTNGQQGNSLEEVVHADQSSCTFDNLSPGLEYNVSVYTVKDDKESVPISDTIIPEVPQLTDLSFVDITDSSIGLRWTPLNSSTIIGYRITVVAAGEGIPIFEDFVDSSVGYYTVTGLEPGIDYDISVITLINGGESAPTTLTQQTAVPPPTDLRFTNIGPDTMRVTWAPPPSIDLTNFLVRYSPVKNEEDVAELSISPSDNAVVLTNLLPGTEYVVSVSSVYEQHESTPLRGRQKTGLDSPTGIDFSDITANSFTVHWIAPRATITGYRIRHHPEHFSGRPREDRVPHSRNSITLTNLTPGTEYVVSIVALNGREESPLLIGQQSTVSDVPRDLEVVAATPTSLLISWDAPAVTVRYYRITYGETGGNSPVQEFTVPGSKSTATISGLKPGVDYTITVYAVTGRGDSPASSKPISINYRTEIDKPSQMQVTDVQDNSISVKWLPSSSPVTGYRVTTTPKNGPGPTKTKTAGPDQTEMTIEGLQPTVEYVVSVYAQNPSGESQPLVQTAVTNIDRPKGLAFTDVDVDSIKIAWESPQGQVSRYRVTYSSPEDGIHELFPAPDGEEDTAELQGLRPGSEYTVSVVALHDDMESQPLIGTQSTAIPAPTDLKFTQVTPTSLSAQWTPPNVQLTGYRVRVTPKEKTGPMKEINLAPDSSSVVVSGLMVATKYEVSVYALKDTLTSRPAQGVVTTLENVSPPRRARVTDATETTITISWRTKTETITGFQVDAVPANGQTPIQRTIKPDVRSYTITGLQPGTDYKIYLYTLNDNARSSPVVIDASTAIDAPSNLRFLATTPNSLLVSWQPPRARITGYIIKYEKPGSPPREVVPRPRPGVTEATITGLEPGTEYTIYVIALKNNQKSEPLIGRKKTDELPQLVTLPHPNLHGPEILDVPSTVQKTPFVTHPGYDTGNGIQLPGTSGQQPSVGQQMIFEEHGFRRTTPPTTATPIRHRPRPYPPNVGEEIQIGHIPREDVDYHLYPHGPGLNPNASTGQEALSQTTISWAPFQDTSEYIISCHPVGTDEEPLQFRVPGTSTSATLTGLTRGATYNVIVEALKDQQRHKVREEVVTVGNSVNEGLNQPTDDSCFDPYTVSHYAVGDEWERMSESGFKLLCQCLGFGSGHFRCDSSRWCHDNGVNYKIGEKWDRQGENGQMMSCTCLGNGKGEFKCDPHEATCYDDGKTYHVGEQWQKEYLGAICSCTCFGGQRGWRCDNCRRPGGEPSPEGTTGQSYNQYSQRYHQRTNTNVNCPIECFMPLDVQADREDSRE

B1: Construct EE (pH fibronectin): mIL2-SGG-GGWSHW(SEQ ID NO: 653)-MMPcs1-2x(G4S)-mIL2Ra(1-215)-muIgG1Fc (Fc fusion)
chain: APTSSSTSSSTAEAQQQQQQQQQQQQHLEQLLMDLQELLSRMENYRNLKLPRMLTFKFYLPKQATELKDLQCLEDELGPLRHVLDLTQSKSFQLEDAENFISNIRVTVVKLKGSDNTFECQFDDESATVVDFLRRWIAFCQSIISTSPQSGGGGWSHWGPLGVRGGGGGSGGGGSELCLYDPPEVPNATFKALSYKNGTILNCECKRGFRRLKELVYMRCLGNSWSSNCQCTSNSHDKSRKQVTAQLEHQKEQQTTTDMQKPTQSMHQENLTGHCREPPPWKHEDSKRIYHFVEGQSVHYECIPGYKALQRGPAISICKMKCGKTGWTQPQLTCVDEREHHRFLASEESQGSRNSSPESETSCPITTTDFPQPTETTAMTETFVLTMEYKGCKPCICTVPEVSSVFIFPPKPKDVLTITLTPKVTCVVVDISKDDPEVQFSWFVDDVEVHTAQTQPREEQFNSTFRSVSELPIMHQDWLNGKEFKCRVNSAAFPAPIEKTISKTKGRPKAPQVYTIPPPKEQMAKDKVSLTCMITDFFPEDITVEWQWNGQPAENYKNTQPIMDTDGSYFVYSKLNVQKSNWEAGNTFTCSVLHEGLHNHHTEKSLSHSPGK
notes: Single-chain mouse IL-2 / IL-2Ralpha / mouse IgG1 Fc fusion
EC50 [1]: 1820 nM

B2: Construct II (collagen I): mIL2-LHERHLNNN(SEQ ID NO: 665)-MMPcs1-2x(G4S)-mIL2Ra(1-215)-muIgG1Fc (Fc fusion)
chain: APTSSSTSSSTAEAQQQQQQQQQQQQHLEQLLMDLQELLSRMENYRNLKLPRMLTFKFYLPKQATELKDLQCLEDELGPLRHVLDLTQSKSFQLEDAENFISNIRVTVVKLKGSDNTFECQFDDESATVVDFLRRWIAFCQSIISTSPQSLHERHLNNNGPLGVRGGGGGSGGGGSELCLYDPPEVPNATFKALSYKNGTILNCECKRGFRRLKELVYMRCLGNSWSSNCQCTSNSHDKSRKQVTAQLEHQKEQQTTTDMQKPTQSMHQENLTGHCREPPPWKHEDSKRIYHFVEGQSVHYECIPGYKALQRGPAISICKMKCGKTGWTQPQLTCVDEREHHRFLASEESQGSRNSSPESETSCPITTTDFPQPTETTAMTETFVLTMEYKGCKPCICTVPEVSSVFIFPPKPKDVLTITLTPKVTCVVVDISKDDPEVQFSWFVDDVEVHTAQTQPREEQFNSTFRSVSELPIMHQDWLNGKEFKCRVNSAAFPAPIEKTISKTKGRPKAPQVYTIPPPKEQMAKDKVSLTCMITDFFPEDITVEWQWNGQPAENYKNTQPIMDTDGSYFVYSKLNVQKSNWEAGNTFTCSVLHEGLHNHHTEKSLSHSPGK
fold of bound fraction over Construct B [2]: 1.4 fold
